Fewer inactive variants are shown than the library holds.
B1: TPR 5TU (parent)
chain: GGAUCUUCUCGAUCUAACAAAAAAGACAAAUCUGCCACAAAGCUUGAGAGCAUCUUCGGAUGCAGAGGCGGCAGCCUUCGGUGGCGCGAUAGCGCCAACGUUCUCAACUAUGACACGCAAAACGCGUGCUCCGUUGAAUGGAGUUUAUCAUG

Variants of: B1
Assay: polymerase ribozyme fitness, log enrichment relative to wild type (log ratio); higher = more active; in vitro selection for triplet polymerase activity
In short: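 Fitness compares each genotype's enrichment to that of the wild type on a logarithmic scale, averaging replicates with inverse-variance weights. The logarithm is base 2. Enrichment came from Illumina sequencing of input and output libraries after one triplicate round of in vitro selection, which included frozen incubation at −7 °C, of PCR-built, transcribed mutant libraries of each subunit of a heterodimeric triplet polymerase ribozyme. Only genotypes with ≥10 input reads and ≥1 read per output were kept.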

Question: For G11A U55G G74C U77C A98U A115C, which “polymerase ribozyme fitness (log ratio)” value is on record?
Answer: Its value is ≤ -4.2.

Question: For C8U G50U G71C C85G, which “polymerase ribozyme fitness (log ratio)” value is on record?
Answer: The value was ≤ -4.2.

Question: With U9A A16U C57U G70A C79A G88U C95U A119U U151A as the variant, how does the “polymerase ribozyme fitness (log ratio)” value read?
Answer: Its value is ≤ -4.2.

Question: With C10G A20G G50U G59C C87U as the variant, how does the “polymerase ribozyme fitness (log ratio)” value read?
Answer: The value was ≤ -4.2.

Question: Which “polymerase ribozyme fitness (log ratio)” value does the source give for C8U C57U U61A G117A A121U U134C here?
Answer: The value was -4.09.

Question: For C10G A73G G92U, which “polymerase ribozyme fitness (log ratio)” value is on record?
Answer: Its value is ≤ -4.2.

Question: For G11A C96G A120C U146C, which “polymerase ribozyme fitness (log ratio)” value is on record?
Answer: Its value is -1.48.

Question: With U9G G68C G83A G84A C149U as the variant, how does the “polymerase ribozyme fitness (log ratio)” value read?
Answer: Its value is ≤ -4.2.

Question: For C10A A23U G83U, which “polymerase ribozyme fitness (log ratio)” value is on record?
Answer: Its value is ≤ -4.2.

Question: With C8U C14G U33G C51G C54U C57A U77G C87G G136U as the variant, how does the “polymerase ribozyme fitness (log ratio)” value read?
Answer: Its value is ≤ -4.2.

Question: For C10U U135A G141A C149G, which “polymerase ribozyme fitness (log ratio)” value is on record?
Answer: Its value is ≤ -4.2.

Question: Which “polymerase ribozyme fitness (log ratio)” value does the source give for U9A C75U G88C C99G U101A C118U A137C here?
Answer: The value was ≤ -4.2.

Question: With C8U C93A as the variant, how does the “polymerase ribozyme fitness (log ratio)” value read?
Answer: The value was ≤ -4.2.

Question: Which “polymerase ribozyme fitness (log ratio)” value does the source give for G11A U55A U77G G83C A142U here?
Answer: Its value is ≤ -4.2.

Question: Which “polymerase ribozyme fitness (log ratio)” value does the source give for U9G A24U C96U U144G here?
Answer: Its value is ≤ -4.2.

Question: With U9A A16U U56A G84A C131U as the variant, how does the “polymerase ribozyme fitness (log ratio)” value read?
Answer: The value was ≤ -4.2.

Question: Which “polymerase ribozyme fitness (log ratio)” value does the source give for U9G C103A here?
Answer: The value was -3.73.

Question: Which “polymerase ribozyme fitness (log ratio)” value does the source give for C10G U61A C93A U139A here?
Answer: The value was ≤ -4.2.

Question: Which “polymerase ribozyme fitness (log ratio)” value does the source give for C10G C69G G83C here?
Answer: Its value is ≤ -4.2.

Question: With C10U A17C C38U G58C C96G as the variant, how does the “polymerase ribozyme fitness (log ratio)” value read?
Answer: Its value is -3.69.

Question: Which “polymerase ribozyme fitness (log ratio)” value does the source give for C8U A29G G62A C93U C95A U144A here?
Answer: Its value is ≤ -4.2.

Question: Which “polymerase ribozyme fitness (log ratio)” value does the source give for C10G U13G A16C U56A G92C C105A C114U here?
Answer: The value was ≤ -4.2.

Question: Which “polymerase ribozyme fitness (log ratio)” value does the source give for U9C A40C U56A C96G U101C U134C here?
Answer: Its value is ≤ -4.2.

Question: For U9C A37C U55G A66C G70C C76A C131U, which “polymerase ribozyme fitness (log ratio)” value is on record?
Answer: The value was ≤ -4.2.

Question: Which “polymerase ribozyme fitness (log ratio)” value does the source give for U9A A23U C32G C54G G92U U101C G140U here?
Answer: Its value is ≤ -4.2.

Question: Which “polymerase ribozyme fitness (log ratio)” value does the source give for C10G A26C C75A G84A here?
Answer: The value was ≤ -4.2.

Question: With U9A A22U A39G C96G U109G as the variant, how does the “polymerase ribozyme fitness (log ratio)” value read?
Answer: Its value is ≤ -4.2.

Question: With C8U C93U C99G as the variant, how does the “polymerase ribozyme fitness (log ratio)” value read?
Answer: The value was ≤ -4.2.

Question: With U9C A40C U45A G65C C85A U111G A113U C118G as the variant, how does the “polymerase ribozyme fitness (log ratio)” value read?
Answer: Its value is ≤ -4.2.

Question: With G11A C32A C93U as the variant, how does the “polymerase ribozyme fitness (log ratio)” value read?
Answer: The value was ≤ -4.2.

Question: For U9A A39U U61A C76U C93A A120U G141A, which “polymerase ribozyme fitness (log ratio)” value is on record?
Answer: Its value is ≤ -4.2.

Question: With C8U C10A A23C G59U G88U as the variant, how does the “polymerase ribozyme fitness (log ratio)” value read?
Answer: The value was ≤ -4.2.

Question: With C8G U15C A52G C57G G59U C87G as the variant, how does the “polymerase ribozyme fitness (log ratio)” value read?
Answer: The value was -3.95.

Question: With C10G C93U as the variant, how does the “polymerase ribozyme fitness (log ratio)” value read?
Answer: Its value is -3.86.

Question: For C10U A52U A60C G88U, which “polymerase ribozyme fitness (log ratio)” value is on record?
Answer: Its value is ≤ -4.2.

Question: For U9C A26U C38U C54A A66C U78A A89C A97G, which “polymerase ribozyme fitness (log ratio)” value is on record?
Answer: The value was ≤ -4.2.

Question: Which “polymerase ribozyme fitness (log ratio)” value does the source give for C10A A37U C79A C85U C87A here?
Answer: The value was ≤ -4.2.

Question: With C10A U15G G58A G86U A98G A138U as the variant, how does the “polymerase ribozyme fitness (log ratio)” value read?
Answer: The value was ≤ -4.2.

Question: With C10U C105A as the variant, how does the “polymerase ribozyme fitness (log ratio)” value read?
Answer: Its value is -3.59.

Question: With C10U U77G C87A A91C C108U G133A as the variant, how does the “polymerase ribozyme fitness (log ratio)” value read?
Answer: The value was ≤ -4.2.

Question: Which “polymerase ribozyme fitness (log ratio)” value does the source give for C8U C32A A49G G92A C96U U127G A138G here?
Answer: Its value is ≤ -4.2.

Question: With C10U C87U as the variant, how does the “polymerase ribozyme fitness (log ratio)” value read?
Answer: The value was -2.87.

Question: Which “polymerase ribozyme fitness (log ratio)” value does the source give for U9G G74A A91G C93U G141U here?
Answer: The value was ≤ -4.2.

Question: With U9C A24U A41G C75U G83A G84A C93A as the variant, how does the “polymerase ribozyme fitness (log ratio)” value read?
Answer: Its value is ≤ -4.2.

Question: With C10U C27G C54U C95G C96G A110G as the variant, how does the “polymerase ribozyme fitness (log ratio)” value read?
Answer: Its value is ≤ -4.2.

Question: For G11A U56A C99U G143C, which “polymerase ribozyme fitness (log ratio)” value is on record?
Answer: The value was -3.7.

Question: With C10U G84U as the variant, how does the “polymerase ribozyme fitness (log ratio)” value read?
Answer: Its value is -4.13.

Question: Which “polymerase ribozyme fitness (log ratio)” value does the source give for U9A C93G here?
Answer: Its value is ≤ -4.2.

Question: With G11A G94U A150U as the variant, how does the “polymerase ribozyme fitness (log ratio)” value read?
Answer: The value was -0.735.

Question: With C10G C14U A28U U53A A122C as the variant, how does the “polymerase ribozyme fitness (log ratio)” value read?
Answer: Its value is ≤ -4.2.

Question: With C8U C87A as the variant, how does the “polymerase ribozyme fitness (log ratio)” value read?
Answer: Its value is ≤ -4.2.

Question: Which “polymerase ribozyme fitness (log ratio)” value does the source give for U9A A12U C85U G88C U148G here?
Answer: The value was ≤ -4.2.

Question: With C8U C95U as the variant, how does the “polymerase ribozyme fitness (log ratio)” value read?
Answer: Its value is -2.24.

Question: Which “polymerase ribozyme fitness (log ratio)” value does the source give for G11A U56A C76U U111C U148A here?
Answer: Its value is ≤ -4.2.

Question: With C10G A29U G34U C38A C87G G88A A122U G136C as the variant, how does the “polymerase ribozyme fitness (log ratio)” value read?
Answer: Its value is ≤ -4.2.

Question: With G11A C85U as the variant, how does the “polymerase ribozyme fitness (log ratio)” value read?
Answer: Its value is -1.56.

Question: For G11A C85A, which “polymerase ribozyme fitness (log ratio)” value is on record?
Answer: Its value is -2.76.

Question: Which “polymerase ribozyme fitness (log ratio)” value does the source give for U9C C10G C35U G94A C103A C108U A115U G140U here?
Answer: The value was ≤ -4.2.

Question: With C10A A41C C76A A91U C96G A121C U127G as the variant, how does the “polymerase ribozyme fitness (log ratio)” value read?
Answer: The value was ≤ -4.2.

Question: For C10A G11U A30U C36A G48A C87G A122G, which “polymerase ribozyme fitness (log ratio)” value is on record?
Answer: The value was ≤ -4.2.

Question: Which “polymerase ribozyme fitness (log ratio)” value does the source give for C10A A23G C32A C38U G46U G59A A60G A97G here?
Answer: Its value is ≤ -4.2.

Question: With U9G C10U U77G G83A A110G as the variant, how does the “polymerase ribozyme fitness (log ratio)” value read?
Answer: The value was ≤ -4.2.

Question: With G11C A17G C32A C72U A113U G117U A122U U148G as the variant, how does the “polymerase ribozyme fitness (log ratio)” value read?
Answer: Its value is ≤ -4.2.

Question: Which “polymerase ribozyme fitness (log ratio)” value does the source give for C8U C14G G50C A106U A110G here?
Answer: The value was ≤ -4.2.

Question: For C10G C18G U55C C57U U61A, which “polymerase ribozyme fitness (log ratio)” value is on record?
Answer: Its value is -4.15.

Question: Which “polymerase ribozyme fitness (log ratio)” value does the source give for G11A C96U here?
Answer: Its value is -1.9.

Question: For C10G C27A U82C G83A A91U, which “polymerase ribozyme fitness (log ratio)” value is on record?
Answer: Its value is ≤ -4.2.

Question: With U9A A26U G92U A142U as the variant, how does the “polymerase ribozyme fitness (log ratio)” value read?
Answer: The value was ≤ -4.2.

Question: With U9G A12U A19U A21U G58A C76U G84A A106U as the variant, how does the “polymerase ribozyme fitness (log ratio)” value read?
Answer: Its value is ≤ -4.2.

Question: For U9A C27U C36A G42C C69A G80A G136U G141C, which “polymerase ribozyme fitness (log ratio)” value is on record?
Answer: Its value is ≤ -4.2.

Question: For C10G C14U C36A C79U G92U, which “polymerase ribozyme fitness (log ratio)” value is on record?
Answer: The value was ≤ -4.2.

Question: With C10A G58C A66U G80A C95U C96U U144G as the variant, how does the “polymerase ribozyme fitness (log ratio)” value read?
Answer: The value was ≤ -4.2.

Question: Which “polymerase ribozyme fitness (log ratio)” value does the source give for U9G G59C G92C A107G A115G here?
Answer: The value was ≤ -4.2.

Question: For G11A C54G G94A, which “polymerase ribozyme fitness (log ratio)” value is on record?
Answer: The value was -2.96.

Question: With U9A C10G G48U C63G C85A A137G G141U as the variant, how does the “polymerase ribozyme fitness (log ratio)” value read?
Answer: The value was ≤ -4.2.

Question: With C10G A39U G84A as the variant, how does the “polymerase ribozyme fitness (log ratio)” value read?
Answer: Its value is ≤ -4.2.

Question: With C8U A26U U44A C85U A115U C118A G133U as the variant, how does the “polymerase ribozyme fitness (log ratio)” value read?
Answer: Its value is ≤ -4.2.

Question: With C10A A12G A17U C32A C96U A110U C116U A147C as the variant, how does the “polymerase ribozyme fitness (log ratio)” value read?
Answer: The value was ≤ -4.2.

Question: For C8U A49U A52G, which “polymerase ribozyme fitness (log ratio)” value is on record?
Answer: The value was -3.79.

Question: With C10U A12C G34A G92C as the variant, how does the “polymerase ribozyme fitness (log ratio)” value read?
Answer: The value was -4.16.

Question: With G11A C27U A49G C96A C118U U145A as the variant, how does the “polymerase ribozyme fitness (log ratio)” value read?
Answer: Its value is -4.19.

Question: With U9G C43A C54A C75G C93G U146A as the variant, how does the “polymerase ribozyme fitness (log ratio)” value read?
Answer: The value was ≤ -4.2.

Question: For C10U C54U U55G, which “polymerase ribozyme fitness (log ratio)” value is on record?
Answer: The value was ≤ -4.2.

Question: For C8U A19C U33G U53A U55A C96G C108U, which “polymerase ribozyme fitness (log ratio)” value is on record?
Answer: Its value is -3.8.

Reference: the RNAGym collection of RNA variant scans (doi:10.1073/pnas.2313332121)
